# In US20260167721A1 (ABLEXIS, published 2026):
# B1: CD3 × CD33-BspAb71 (bispecific antibody)
# chain 1: EVQLVESGGGLVKPGGSLRLSCAASGFTFSSYSMNWVRQAPGKCLEWVSSISRSSSYIYYADSVKGRFTLSRDNAKNSLYLQMNSLRGEDTAIYYCGRDGKGAIFLDYWGQGTLVTVSSGGGGSGGGGSGGGGSGGGGSSYELTQPPSVSVSPGQTARITCSGDALPKKYAYWYQQKSGQAPVLVIYEDSKRPSGIPERFSGSSSGTMATLTISGAQVEDEADYYCYSTHSSGNHRVFGCGTKLTVLDKTHTCPPCPAPEFEGGPSVFLFPPKPKDTLMISRTPEVTCVVVDVSHEDPEVKFNWYVDGVEVHNAKTKPREEQYNSTYRVVSVLTVLHQDWLNGKEYKCKVSNKALPASIEKTISKAKGQPREPQVYTLPPCREEMTKNQVSLWCLVKGFYPSDIAVEWESNGQPENNYKTTPPVLDSDGSFFLYSKLTVDKSRWQQGNVFSCSVMHEALHNHYTQKSLSLSPGK
# chain 2: EVQLVQSGAEVKKPGSSVKVSCKASGYTITDSNIHWVRQAPGQSLEWIGYIYPYNGGTDYNQKFKNRATLTVDNPTNTAYMELSSLRSEDTAFYYCVNGNPWLAYWGQGTLVTVSSASTKGPSVFPLAPSSKSTSGGTAALGCLVKDYFPEPVTVSWNSGALTSGVHTFPAVLQSSGLYSLSSVVTVPSSSLGTQTYICNVNHKPSNTKVDKRVEPKSCDKTHTCPPCPAPEFEGGPSVFLFPPKPKDTLMISRTPEVTCVVVDVSHEDPEVKFNWYVDGVEVHNAKTKPREEQYNSTYRVVSVLTVLHQDWLNGKEYKCKVSNKALPASIEKTISKAKGQPREPQVCTLPPSREEMTKNQVSLSCAVKGFYPSDIAVEWESNGQPENNYKTTPPVLDSDGSFFLVSKLTVDKSRWQQGNVFSCSVMHEALHNRFTQKSLSLSPGK
# chain 3: DIQLTQSPSTLSASVGDRVTITCRASESLDNYGIRFLTWFQQKPGKAPKLLMYAASNQGSGVPSRFSGSGSGTEFTLTISSLQPDDFATYYCQQTKEVPWSFGQGTKVEVKRTVAAPSVFIFPPSDEQLKSGTASVVCLLNNFYPREAKVQWKVDNALQSGNSQESVTEQDSKDSTYSLSSTLTLSKADYEKHKVYACEVTHQGLSSPVTKSFNRGEC
# B2: CD3 × CD33-BspAb52 (bispecific antibody)
# chain 1: not shown
# chain 2: B1 chain 2
# chain 3: B1 chain 3
# B3: CD3 × CD33-BspAb116 (bispecific antibody)
# chain 1: NFMLTQPHSVSESPGKTVTISCTRSSGSIASNYVQWYQQRPGSSPTTVIYEDNQRPSGVPDRFSGSIDSSSNSASLTISGLKTEDEAYYYCQSFDSSNRVFGCGTKLTVLGGGGSGGGGSGGGGSGGGGSQVQLQESGPGLVKPSQTLSLTCTVSGGSISSGGYYWSWIRQHPGKCLEWIGYIYYSGSTYYNPSLKSRVTISVDTSKDQFSLKLSSVTAADTAVYYCARERKTSLPFDIWGQGTMVTVSSDKTHTCPPCPAPEFEGGPSVFLFPPKPKDTLMISRTPEVTCVVVDVSHEDPEVKFNWYVDGVEVHNAKTKPREEQYNSTYRVVSVLTVLHQDWLNGKEYKCKVSNKALPASIEKTISKAKGQPREPQVYTLPPCREEMTKNQVSLWCLVKGFYPSDIAVEWESNGQPENNYKTTPPVLDSDGSFFLYSKLTVDKSRWQQGNVFSCSVMHEALHNHYTQKSLSLSPGK
# chain 2: B1 chain 2
# chain 3: B1 chain 3
# B4: CD3 × CD33-BspAb38 (bispecific antibody)
# chain 1: not shown
# chain 2: B1 chain 2
# chain 3: B1 chain 3
# B5: CD3 × CD33-BspAb51 (bispecific antibody)
# chain 1: not shown
# chain 2: B1 chain 2
# chain 3: B1 chain 3
# B6: CD3 × CD33-BspAb45 (bispecific antibody)
# chain 1: EVQLVESGGGLVQPGGSLRLSCAASGFTFSRYSMNWVRQAPGKCLEWVSYISSSSSSIYYADSVKGRFTISRDNAKNSLYLQMNSLRDEDTAVYYCARDRRATLDYWGQGTLVTVSSGGGGSGGGGSGGGGSGGGGSNFMLTQPHSVSESPGKTVTISCTRSSGSIASNYVQWYQQRPGSSPTTVIYEDNQRPSGVPDRFSGSIDSSSNSASLTISGLKTEDEADYYCQSYDSSNHVFGCGTKLTVLDKTHTCPPCPAPEFEGGPSVFLFPPKPKDTLMISRTPEVTCVVVDVSHEDPEVKFNWYVDGVEVHNAKTKPREEQYNSTYRVVSVLTVLHQDWLNGKEYKCKVSNKALPASIEKTISKAKGQPREPQVYTLPPCREEMTKNQVSLWCLVKGFYPSDIAVEWESNGQPENNYKTTPPVLDSDGSFFLYSKLTVDKSRWQQGNVFSCSVMHEALHNHYTQKSLSLSPGK
# chain 2: B1 chain 2
# chain 3: B1 chain 3
# B7: CD3 × CD33-BspAb66 (bispecific antibody, human IgG1, kappa)
# chain: EVQLVESGGGLVQPGRSLRLSCAASGFTFDDYAMHWVRQAPGKGLEWVSGISWNSGSIGYADSVKGRFTISRDNAKNSLYLQMNSLRAEDTALYYCAKDSRGYGDYRLGGAYWGQGTLVTVSSGGGGSGGGGSGGGGSGGGGSEIVMTQSPATLSVSPGERATLSCRASQSVSSNLAWYQQKPGQAPRLLIYGASTRATGIPARFSGSGSGTEFTLTISSLQSEDFAVYYCQQYNNWPWTFGQGTKVEIKTSGPGGPDKTHTCPPCPAPEFEGGPSVFLFPPKPKDTLMISRTPEVTCVVVDVSHEDPEVKFNWYVDGVEVHNAKTKPREEQYNSTYRVVSVLTVLHQDWLNGKEYKCKVSNKALPASIEKTISKAKGQPREPQVYTLPPCREEMTKNQVSLWCLVKGFYPSDIAVEWESNGQPENNYKTTPPVLDSDGSFFLYSKLTVDKSRWQQGNVFSCSVMHEALHNHYTQKSLSLSPGK
# heavy: B1 chain 2
# light: B1 chain 3
# B8: CD3 × CD33-BspAb37 (bispecific antibody)
# chain 1: not shown
# chain 2: B1 chain 2
# chain 3: B1 chain 3
# Molecular target: T1, CD3 on human donor PBMC / Pan T effector cells (human, UniProt P07766 23-207; P09693 23-182; P04234 22-171; P20963 22-164)
# Experiment: cell-based or functional assay
# T1 sequence (P07766 23-207, chain 1 of 4): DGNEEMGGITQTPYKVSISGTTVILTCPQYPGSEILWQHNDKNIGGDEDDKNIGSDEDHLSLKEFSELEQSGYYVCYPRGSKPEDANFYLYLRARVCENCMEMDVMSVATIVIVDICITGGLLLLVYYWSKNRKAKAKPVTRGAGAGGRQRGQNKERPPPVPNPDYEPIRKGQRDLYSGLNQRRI
# T1 sequence (P09693 23-182, chain 2 of 4): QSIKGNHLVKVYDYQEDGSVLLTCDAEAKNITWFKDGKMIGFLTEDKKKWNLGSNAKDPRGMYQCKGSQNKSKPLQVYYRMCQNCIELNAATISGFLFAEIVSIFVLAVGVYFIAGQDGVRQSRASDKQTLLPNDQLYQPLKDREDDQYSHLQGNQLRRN
# T1 sequence (P04234 22-171, chain 3 of 4): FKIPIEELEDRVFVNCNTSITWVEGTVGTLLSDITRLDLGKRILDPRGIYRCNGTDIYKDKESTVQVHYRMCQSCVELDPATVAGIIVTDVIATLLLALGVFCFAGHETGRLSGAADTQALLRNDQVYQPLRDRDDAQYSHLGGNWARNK
# T1 sequence (P20963 22-164, chain 4 of 4): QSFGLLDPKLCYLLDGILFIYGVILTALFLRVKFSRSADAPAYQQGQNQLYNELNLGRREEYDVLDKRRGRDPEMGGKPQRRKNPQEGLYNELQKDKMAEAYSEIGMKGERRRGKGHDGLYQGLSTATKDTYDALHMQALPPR
Cytokine Release Assay (TNFα) Donor 0 gMFI max [gMFI],Cytokine Release Assay (TNFα) Donor 1 gMFI max [gMFI],Cytokine Release Assay (TNFα) Donor 2 EC50 [nM],Cytokine Release Assay (TNFα) Donor 2 gMFI max [gMFI],Cytokine Release Assay (TNFα) Donor 3 gMFI max [gMFI],Cytokine Release Assay (TNFα) Donor 3 EC50 [nM],Cytokine Release Assay (TNFα) Donor 0 EC50 [nM],Cytokine Release Assay (TNFα) Donor 1 EC50 [nM],Binder
44100,5470,0.396,16700,28200,–,–,–,B1
5510,4510,1.35,4800,5310,18.6,–,–,B2
18000,4930,0.155,9080,13600,0.685,0.61,–,B3
28500,4840,4.03,10100,17900,5.95,6.01,–,B4
51700,6200,0.18,14800,36200,0.166,0.203,0.535,B5
71300,4850,0.0334,12100,31800,0.0216,0.0919,–,B6
55800,5360,28.1,14000,28600,10.8,20.1,–,B7
48300,5610,0.0832,15800,31600,0.222,0.165,–,B8

# Molecular target: T1, CD3 on human donor PBMC / Pan T …
# Experiment: cell-based or functional assay
# Remark: another data set of the same source
Cytokine Release Assay (IL2) Donor 0 EC50 [nM],Cytokine Release Assay (IL2) Donor 0 gMFI max [gMFI],Cytokine Release Assay (IL2) Donor 1 gMFI max [gMFI],Cytokine Release Assay (IL2) Donor 2 EC50 [nM],Cytokine Release Assay (IL2) Donor 2 gMFI max [gMFI],Cytokine Release Assay (IL2) Donor 3 EC50 [nM],Cytokine Release Assay (IL2) Donor 3 gMFI max [gMFI],Cytokine Release Assay (IL2) Donor 1 EC50 [nM],Binder
3.03,65500,24400,0.0725,30900,2.16,127000,–,B1
141,17200,14500,–,12800,3.87,18100,10.7,B2
0.45,23200,19000,0.0909,16800,0.198,27200,0.384,B3
6.63,39300,16200,1.73,19200,1.84,45900,2.87,B4
0.181,105000,37800,0.205,27300,0.0995,156000,0.529,B5
0.0539,50900,22200,0.0204,26200,0.0205,67900,0.0869,B6
44.9,84700,31100,38.7,33700,49.8,95000,40.1,B7
0.18,69200,26800,0.141,34800,0.181,104000,0.437,B8
